According to patent US20220204580A1 (AstraZeneca / MedImmune, published 2022):
Numbered stars: 1 amine (or outer) side, 2 acyl side, 3 side chain; on linkers, the order of the positions; unused ones are H or OH. Bridge positions count the residues as written; N and C are the ends. Square brackets hold non-standard residues; d marks the D form. Side chains are listed from the residue outwards. Ends that are not written are not given here. * marks the point of attachment. C18 diacid = O=C(O)CCCCCCCCCCCCCCCCC(=O)*; γGlu = O=C(O)[C@H](CCC(=O)[*:2])N[*:1]; αMeF = C[C@](N)(Cc1ccccc1)C(=O)O; αMeS = C[C@](N)(CO)C(=O)O

B1: Peptide 21 (SEQ ID NO: 21) (peptide)
peptide: K([γGlu-γGlu-C18 diacid])CNTATCATQRLANFLVHSSNN[αMeF]GPILPPTNVGSRTY-NH2
modifications: disulfide 2-7; N-terminus assumed
SMILES: CC[C@H](C)[C@H](NC(=O)[C@@H]1CCCN1C(=O)CNC(=O)[C@](C)(Cc1ccccc1)NC(=O)[C@H](CC(N)=O)NC(=O)[C@H](CC(N)=O)NC(=O)[C@H](CO)NC(=O)[C@H](CO)NC(=O)[C@H](Cc1c[nH]cn1)NC(=O)[C@@H](NC(=O)[C@H](CC(C)C)NC(=O)[C@H](Cc1ccccc1)NC(=O)[C@H](CC(N)=O)NC(=O)[C@H](C)NC(=O)[C@H](CC(C)C)NC(=O)[C@H](CCCNC(=N)N)NC(=O)[C@H](CCC(N)=O)NC(=O)[C@@H](NC(=O)[C@H](C)NC(=O)[C@@H]1CSSC[C@H](NC(=O)[C@@H](N)CCCCNC(=O)CC[C@H](NC(=O)CC[C@H](NC(=O)CCCCCCCCCCCCCCCCC(=O)O)C(=O)O)C(=O)O)C(=O)N[C@@H](CC(N)=O)C(=O)N[C@@H]([C@@H](C)O)C(=O)N[C@@H](C)C(=O)N[C@@H]([C@@H](C)O)C(=O)N1)[C@@H](C)O)C(C)C)C(=O)N[C@@H](CC(C)C)C(=O)N1CCC[C@H]1C(=O)N1CCC[C@H]1C(=O)N[C@H](C(=O)N[C@@H](CC(N)=O)C(=O)N[C@H](C(=O)NCC(=O)N[C@@H](CO)C(=O)N[C@@H](CCCNC(=N)N)C(=O)N[C@H](C(=O)N[C@@H](Cc1ccc(O)cc1)C(N)=O)[C@@H](C)O)C(C)C)[C@@H](C)O
B2: Peptide 19 (SEQ ID NO: 19) (peptide)
peptide: K([γGlu-C18 diacid])CNTATCATQRLANFLRHSSNN[αMeF]GPILPPTNVGSNTY-NH2
modifications: disulfide 2-7; N-terminus assumed
SMILES: CC[C@H](C)[C@H](NC(=O)[C@@H]1CCCN1C(=O)CNC(=O)[C@](C)(Cc1ccccc1)NC(=O)[C@H](CC(N)=O)NC(=O)[C@H](CC(N)=O)NC(=O)[C@H](CO)NC(=O)[C@H](CO)NC(=O)[C@H](Cc1c[nH]cn1)NC(=O)[C@H](CCCNC(=N)N)NC(=O)[C@H](CC(C)C)NC(=O)[C@H](Cc1ccccc1)NC(=O)[C@H](CC(N)=O)NC(=O)[C@H](C)NC(=O)[C@H](CC(C)C)NC(=O)[C@H](CCCNC(=N)N)NC(=O)[C@H](CCC(N)=O)NC(=O)[C@@H](NC(=O)[C@H](C)NC(=O)[C@@H]1CSSC[C@H](NC(=O)[C@@H](N)CCCCNC(=O)CC[C@H](NC(=O)CCCCCCCCCCCCCCCCC(=O)O)C(=O)O)C(=O)N[C@@H](CC(N)=O)C(=O)N[C@@H]([C@@H](C)O)C(=O)N[C@@H](C)C(=O)N[C@@H]([C@@H](C)O)C(=O)N1)[C@@H](C)O)C(=O)N[C@@H](CC(C)C)C(=O)N1CCC[C@H]1C(=O)N1CCC[C@H]1C(=O)N[C@H](C(=O)N[C@@H](CC(N)=O)C(=O)N[C@H](C(=O)NCC(=O)N[C@@H](CO)C(=O)N[C@@H](CC(N)=O)C(=O)N[C@H](C(=O)N[C@@H](Cc1ccc(O)cc1)C(N)=O)[C@@H](C)O)C(C)C)[C@@H](C)O

Assays:
[1] = target: T1, human calcitonin receptor (human, UniProt P30988 25-474); experiment: cell-based or functional assay
T1 sequence (looked up): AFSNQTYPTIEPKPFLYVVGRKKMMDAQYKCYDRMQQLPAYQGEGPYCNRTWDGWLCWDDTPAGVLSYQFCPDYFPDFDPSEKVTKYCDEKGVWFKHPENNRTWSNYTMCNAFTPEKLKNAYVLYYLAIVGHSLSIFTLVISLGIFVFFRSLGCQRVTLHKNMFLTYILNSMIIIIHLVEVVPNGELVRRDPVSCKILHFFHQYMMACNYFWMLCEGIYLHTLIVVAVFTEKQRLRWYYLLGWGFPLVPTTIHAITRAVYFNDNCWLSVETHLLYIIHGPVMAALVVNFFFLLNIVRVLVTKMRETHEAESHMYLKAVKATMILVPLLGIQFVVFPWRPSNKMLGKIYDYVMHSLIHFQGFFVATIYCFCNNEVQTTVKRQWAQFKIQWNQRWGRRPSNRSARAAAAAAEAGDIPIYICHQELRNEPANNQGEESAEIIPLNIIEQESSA

[2] = target: T2, human amylin receptor (calcitonin receptor co-expressed with receptor activity modifying protein, RAMP3) (human, UniProt P30988 25-474; O60896 24-148); experiment: cell-based or functional assay
T2 sequence (looked up) 1: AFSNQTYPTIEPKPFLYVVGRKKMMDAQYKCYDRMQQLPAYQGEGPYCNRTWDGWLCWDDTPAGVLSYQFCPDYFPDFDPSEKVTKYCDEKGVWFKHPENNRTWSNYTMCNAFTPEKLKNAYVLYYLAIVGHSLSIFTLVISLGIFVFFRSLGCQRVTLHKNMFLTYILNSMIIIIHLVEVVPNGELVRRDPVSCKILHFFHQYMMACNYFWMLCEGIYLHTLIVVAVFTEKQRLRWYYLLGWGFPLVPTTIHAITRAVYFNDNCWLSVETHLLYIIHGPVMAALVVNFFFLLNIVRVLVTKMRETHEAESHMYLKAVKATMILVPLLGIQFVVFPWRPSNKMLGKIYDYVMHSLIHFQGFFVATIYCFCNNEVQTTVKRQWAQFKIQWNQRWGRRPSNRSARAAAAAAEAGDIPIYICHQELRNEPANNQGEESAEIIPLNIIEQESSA
T2 sequence (looked up) 2: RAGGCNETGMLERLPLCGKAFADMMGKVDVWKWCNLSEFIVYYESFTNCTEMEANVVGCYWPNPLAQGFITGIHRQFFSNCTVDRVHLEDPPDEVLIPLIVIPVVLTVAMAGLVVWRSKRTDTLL

Row | Binder | EC50 (cAMP production) [1] [nM] | EC50 (cAMP production) [2] [nM] | Ratio (EC50 hCTR / EC50 hAMYR3) [2]
1 | B1 | 3.41 | 0.136 | 25
2 | K([γGlu-γGlu-C18 diacid])CNTATCATQRLANFLVHS[αMeS]NNFGPILPPTNVGSNTY-NH2 (disulfide 2-7) [Peptide 22 (SEQ ID NO: 22)] | 6.54 | 0.162 | 40
3 | B2 | 4.04 | 0.278 | 15
